The supplement of paper PMC9112550, “Optimization of the antimicrobial peptide Bac7 by deep mutational scanning” (BMC Biology, 2022)

Test system: Escherichia coli TOP10
Test: shrunken log2 fold change of peptide-encoding DNA abundance (4.5 h post-induction vs induction); higher = less antimicrobial activity (less host growth inhibition)
Conditions: time post-induction: 4.5 h; library: site-saturation at positions 5, 18, 19, 20
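Further: peptides expressed intracellularly from a pBAD plasmid library in pooled LB shake-flask culture, induced with 0.3% L-arabinose, DNA abundance read by NGS, three biological replicates, DESeq2 with apeglm shrinkage.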

Sequence | shrunken log2 fold change
RRIRHRPPRLPRPRPRPEWKPRP | -0.00613
RRIRIRPPRLPRPRPRPDKYPRP | -0.189
RRIRERPPRLPRPRPRPMTDPRP | -0.131
RRIRIRPPRLPRPRPRPDDYPRP | 0.07
RRIRGRPPRLPRPRPRPIQWPRP | 0.325
RRIRWRPPRLPRPRPRPNAMPRP | 0.123
RRIRCRPPRLPRPRPRPFVWPRP | 0.0706
RRIRKRPPRLPRPRPRPWADPRP | -0.017
RRIRNRPPRLPRPRPRPLFCPRP | -0.495
RRIRARPPRLPRPRPRPHARPRP | 0.156
RRIRIRPPRLPRPRPRPFMNPRP | -0.16
RRIRERPPRLPRPRPRPDIFPRP | 0.0405
RRIRDRPPRLPRPRPRPMTPPRP | -0.0805
RRIRKRPPRLPRPRPRPECHPRP | -0.0136
RRIRDRPPRLPRPRPRPHWVPRP | 0.0635
RRIRRRPPRLPRPRPRPQQQPRP | -0.0864
RRIRFRPPRLPRPRPRPRFSPRP | 0.033
RRIRERPPRLPRPRPRPFNEPRP | -0.226
RRIRSRPPRLPRPRPRPASSPRP | -0.201
RRIRCRPPRLPRPRPRPHPRPRP | 0.444
RRIRERPPRLPRPRPRPGMKPRP | 0.0657
RRIRDRPPRLPRPRPRPEFSPRP | 0.221
RRIRNRPPRLPRPRPRPCRQPRP | -0.065
RRIRKRPPRLPRPRPRPYQGPRP | -0.231
RRIRKRPPRLPRPRPRPFWSPRP | -0.00917

Sequence | shrunken log2 fold change
RRIRKRPPRLPRPRPRPCRKPRP | 0.0153
RRIRNRPPRLPRPRPRPHSHPRP | -0.472
RRIRMRPPRLPRPRPRPQIWPRP | 0.144
RRIRNRPPRLPRPRPRPVTSPRP | -0.469
RRIRKRPPRLPRPRPRPILNPRP | -0.158
RRIRQRPPRLPRPRPRPVEMPRP | -0.101
RRIRLRPPRLPRPRPRPYHTPRP | -0.484
RRIRTRPPRLPRPRPRPGWDPRP | 0.129
RRIRVRPPRLPRPRPRPHKKPRP | -0.169
RRIRMRPPRLPRPRPRPDGKPRP | 0.322
RRIRMRPPRLPRPRPRPFELPRP | 0.0846
RRIRHRPPRLPRPRPRPPYEPRP | -0.486
RRIRARPPRLPRPRPRPSCTPRP | 0.44
RRIRWRPPRLPRPRPRPWFRPRP | -0.251
RRIRVRPPRLPRPRPRPNEQPRP | -0.232
RRIRARPPRLPRPRPRPSTNPRP | 0.0112
RRIRNRPPRLPRPRPRPLDFPRP | -0.386
RRIRKRPPRLPRPRPRPNAHPRP | 0.208
RRIRDRPPRLPRPRPRPLHFPRP | -0.0881
RRIRERPPRLPRPRPRPSNGPRP | -0.0949
RRIRYRPPRLPRPRPRPWFSPRP | -0.346
RRIRVRPPRLPRPRPRPTRYPRP | -0.0106
RRIRPRPPRLPRPRPRPDGLPRP | -0.117
RRIRLRPPRLPRPRPRPNIWPRP | -0.0307
RRIRWRPPRLPRPRPRPNYQPRP | -0.365

Sequence | shrunken log2 fold change
RRIRTRPPRLPRPRPRPKNSPRP | -0.438
RRIRARPPRLPRPRPRPKHYPRP | -0.277
RRIRYRPPRLPRPRPRPTSCPRP | -0.331
RRIRKRPPRLPRPRPRPFINPRP | -0.148
RRIRIRPPRLPRPRPRPAGDPRP | 0.0386
RRIRARPPRLPRPRPRPYTWPRP | -0.428
RRIRGRPPRLPRPRPRPCNYPRP | -0.11
RRIRHRPPRLPRPRPRPTDFPRP | -0.0704
RRIRCRPPRLPRPRPRPNKPPRP | 0.0511
RRIRLRPPRLPRPRPRPQKLPRP | -0.17
RRIRPRPPRLPRPRPRPCSIPRP | -0.232
RRIRERPPRLPRPRPRPCWIPRP | -0.594
RRIRHRPPRLPRPRPRPWRKPRP | -0.00968
RRIRHRPPRLPRPRPRPHIPPRP | -0.514
RRIRERPPRLPRPRPRPTCLPRP | -0.233
RRIRMRPPRLPRPRPRPNSVPRP | -0.0202
RRIRHRPPRLPRPRPRPGYTPRP | -0.302
RRIRIRPPRLPRPRPRPANMPRP | -0.45
RRIRPRPPRLPRPRPRPNWKPRP | -0.101
RRIRRRPPRLPRPRPRPEFPPRP | 0.154
RRIRRRPPRLPRPRPRPRWWPRP | 0.318
RRIRERPPRLPRPRPRPETCPRP | -0.127
RRIRGRPPRLPRPRPRPVCEPRP | 1.06
RRIRTRPPRLPRPRPRPTVLPRP | -0.0554
RRIRNRPPRLPRPRPRPYDAPRP | -0.066

Sequence | shrunken log2 fold change
RRIRARPPRLPRPRPRPADNPRP | 0.383
RRIRHRPPRLPRPRPRPMVFPRP | 0.14
RRIRDRPPRLPRPRPRPMNHPRP | -0.513
RRIRFRPPRLPRPRPRPQTKPRP | -0.142
RRIRGRPPRLPRPRPRPSVTPRP | 0.708
RRIRIRPPRLPRPRPRPSYQPRP | -1.32
RRIRARPPRLPRPRPRPFHDPRP | -0.356
RRIRIRPPRLPRPRPRPWYIPRP | -0.0639
RRIRYRPPRLPRPRPRPLPGPRP | -0.139
RRIRHRPPRLPRPRPRPVSWPRP | 0.442
RRIRKRPPRLPRPRPRPGCYPRP | 0.144
RRIRCRPPRLPRPRPRPGRDPRP | 0.18
RRIRMRPPRLPRPRPRPNVFPRP | 0.136
RRIRKRPPRLPRPRPRPDCAPRP | 1.1
RRIRRRPPRLPRPRPRPRTIPRP | 0.134
RRIRFRPPRLPRPRPRPSVGPRP | -0.453
RRIRHRPPRLPRPRPRPWRAPRP | -0.0415
RRIRFRPPRLPRPRPRPRFPPRP | 0.0497
RRIRTRPPRLPRPRPRPYWCPRP | -0.53
RRIRCRPPRLPRPRPRPQIGPRP | -0.00649
RRIRGRPPRLPRPRPRPRRWPRP | 0.841
RRIRTRPPRLPRPRPRPEYGPRP | -0.0673
RRIRFRPPRLPRPRPRPTNHPRP | -0.536
RRIRFRPPRLPRPRPRPFNMPRP | -0.314
RRIRKRPPRLPRPRPRPQKPPRP | 0.00856

Sequence | shrunken log2 fold change
RRIRHRPPRLPRPRPRPNYEPRP | -0.586
RRIRDRPPRLPRPRPRPYFGPRP | -0.551
RRIRARPPRLPRPRPRPNAPPRP | 0.467
RRIRGRPPRLPRPRPRPDEMPRP | -0.0376
RRIRGRPPRLPRPRPRPTTHPRP | 0.875
RRIRTRPPRLPRPRPRPDEPPRP | -0.105
RRIRSRPPRLPRPRPRPWGGPRP | 0.27
RRIRNRPPRLPRPRPRPKTFPRP | -0.399
RRIRQRPPRLPRPRPRPTYGPRP | -0.293
RRIRERPPRLPRPRPRPCEQPRP | -0.0101
RRIRKRPPRLPRPRPRPSMIPRP | -0.0957
RRIRVRPPRLPRPRPRPQSLPRP | 0.0116
RRIRFRPPRLPRPRPRPIGLPRP | -0.251
RRIRKRPPRLPRPRPRPIGRPRP | 0.015
RRIRSRPPRLPRPRPRPTWLPRP | 0.455
RRIRKRPPRLPRPRPRPMMWPRP | 0.373
RRIRERPPRLPRPRPRPHHYPRP | 0.125
RRIRTRPPRLPRPRPRPHNCPRP | -0.113
RRIRNRPPRLPRPRPRPRDNPRP | 0.104
RRIRERPPRLPRPRPRPLPWPRP | 0.0953
RRIRMRPPRLPRPRPRPLMKPRP | 0.313
RRIRKRPPRLPRPRPRPKDKPRP | 0.388
RRIRTRPPRLPRPRPRPKQGPRP | 0.0588
RRIRKRPPRLPRPRPRPVENPRP | 0.198
RRIRIRPPRLPRPRPRPGWIPRP | -0.14
